Source: the supplement of paper PMC10065799, “High-throughput profiling of sequence recognition by tyrosine kinases and SH2 domains using bacterial peptide display” (eLife, 2023)

These sequences were tested against SHP2-C SH2 (assay: SH2 binding enrichment of the phosphorylated peptide, bacterial display (enrichment ratio); higher = better substrate or ligand; peptides without Tyr show the background).
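Wherever SH2 binding enrichment of the phosphorylated peptide, bacterial display is given: peptide library displayed on the E. coli surface as eCPX fusions, selected cells deep-sequenced, score is each peptide's frequency after selection divided by its frequency in the input.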
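Wherever phosphorylation enrichment, bacterial display is given: 11-residue human phosphosite peptides and single-mutation variants displayed on the E. coli surface, counted by deep sequencing, each peptide's frequency after selection divided by its frequency in the unselected input library; frequency after pTyr selection over input frequency; kinase dosed for 20-30% of maximal phosphorylation in three min.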

In order of rising SH2 binding enrichment:
1. QRAADYFSQQM [GBP6_Y333_YF]  0.353
2. EKMWTYMPSAE [GRIA4_Y695_R697P]  0.444
3. RDEHGYISRCF [HSPB1_Y133_Q128R]  0.455
4. LEVPLYKNGVK [CPS1_Y1069_A1065E]  0.491
5. FDEFRYRSVIK [CFTR_Y517_YF]  0.527
6. VYSTDCYRVGG [NTRK2_Y706_Y706C]  0.538
7. KFMVGYEMLAK [GALT_Y339_Q344K]  0.544
8. FEEDSYVTRSQ [RET_Y905_K907T_YF]  0.548
9. TINPIYEHVGY [CHN1_Y143]  0.582
10. ARGTRYRYVSQ [UCN3_Y95]  0.602
11. AKAEIYEMRPL [COX10_Y97]  0.623
12. VDTFWYKFLKP [EPM2A_Y86_R91P]  0.626
13. QQLQGYVPSNF [FRK_Y99_I100V_YF]  0.64
14. VDGSLYETHPQ [HK1_Y417_K418E]  0.661
15. IIEDPYFGNDF [ACP1_Y132_S137F_YF]  0.662
16. GRQVIYTENER [GPR143_Y231_G229V]  0.681
17. SARSAYQEAMD [SFN_Y151]  0.713
18. QTEAQYRFIYM [PTPN11_Y511]  0.744
19. STSKTYVISRT [RBBP6_Y87]  0.758
20. YEPDAYDDLDQ [ELP5_Y302]  0.764
21. KNNDGNIDFAE [MCFD2_Y135_Y135N_YF]  0.834
22. STGRSYAGVAV [KLHL3_Y577]  0.837
23. VITTLYIGFLG [KCNQ1_Y267_L262V]  0.862
24. EKNANYKEGTF [CLRN1_Y171_I168N_YF]  0.874
25. MAFDRYAAICS [OR8H2_Y123_H120Y_YF]  0.881
26. DLAGRYYALRS [CKB_Y173_K177R]  0.9
27. SVVVSYEPPEV [TP53_Y220_P219S]  0.914
28. RPDSPYSRLHD [DOK2_Y271_P274L]  1.1
29. TTKGSYSLYVR [HCK_Y180_S183Y]  1.11
30. PGIRMYQVQFN [LRFN1_Y454_YF]  1.12
31. RLLVVYSWTQR [HBB_Y36_P37S]  1.21
32. FYLGAYDRFLP [SLC22A5_Y486_V481F]  1.37
33. KACKHYLTKRT [ZBTB5_Y118_T121K]  1.85

Each sequence was assayed against c-Src SH2 in the same assay as above.

In order of rising SH2 binding enrichment:
1. QTEAQYRFIYM [PTPN11_Y511]  0.244
2. QRAADYFSQQM [GBP6_Y333_YF]  0.338
3. VDTFWYKFLKP [EPM2A_Y86_R91P]  0.388
4. FEEDSYVTRSQ [RET_Y905_K907T_YF]  0.419
5. FDEFRYRSVIK [CFTR_Y517_YF]  0.444
6. RDEHGYISRCF [HSPB1_Y133_Q128R]  0.45
7. LEVPLYKNGVK [CPS1_Y1069_A1065E]  0.472
8. STGRSYAGVAV [KLHL3_Y577]  0.476
9. STSKTYVISRT [RBBP6_Y87]  0.476
10. ARGTRYRYVSQ [UCN3_Y95]  0.479
11. EKNANYKEGTF [CLRN1_Y171_I168N_YF]  0.503
12. VDGSLYETHPQ [HK1_Y417_K418E]  0.503
13. IIEDPYFGNDF [ACP1_Y132_S137F_YF]  0.519
14. EKMWTYMPSAE [GRIA4_Y695_R697P]  0.524
15. GRQVIYTENER [GPR143_Y231_G229V]  0.558
16. AKAEIYEMRPL [COX10_Y97]  0.573
17. TINPIYEHVGY [CHN1_Y143]  0.574
18. KNNDGNIDFAE [MCFD2_Y135_Y135N_YF]  0.6
19. VYSTDCYRVGG [NTRK2_Y706_Y706C]  0.601
20. VITTLYIGFLG [KCNQ1_Y267_L262V]  0.615
21. TTKGSYSLYVR [HCK_Y180_S183Y]  0.647
22. QQLQGYVPSNF [FRK_Y99_I100V_YF]  0.659
23. SVVVSYEPPEV [TP53_Y220_P219S]  0.707
24. PGIRMYQVQFN [LRFN1_Y454_YF]  0.997
25. SARSAYQEAMD [SFN_Y151]  1.06
26. YEPDAYDDLDQ [ELP5_Y302]  1.07
27. FYLGAYDRFLP [SLC22A5_Y486_V481F]  1.16
28. RLLVVYSWTQR [HBB_Y36_P37S]  1.31
29. KFMVGYEMLAK [GALT_Y339_Q344K]  1.7
30. KACKHYLTKRT [ZBTB5_Y118_T121K]  1.72
31. DLAGRYYALRS [CKB_Y173_K177R]  1.87
32. MAFDRYAAICS [OR8H2_Y123_H120Y_YF]  1.93
33. RPDSPYSRLHD [DOK2_Y271_P274L]  2.87

These sequences were tested against Grb2 SH2 (UniProt P62993) in the same assay as above.
Grb2 SH2, sequence (P62993 whole entry, looked up): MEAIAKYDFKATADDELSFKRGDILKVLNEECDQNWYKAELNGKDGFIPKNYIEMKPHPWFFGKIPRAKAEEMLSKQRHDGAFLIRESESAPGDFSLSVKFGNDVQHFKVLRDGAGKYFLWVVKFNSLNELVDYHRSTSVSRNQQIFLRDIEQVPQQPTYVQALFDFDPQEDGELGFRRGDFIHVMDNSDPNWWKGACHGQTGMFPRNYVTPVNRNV

In order of rising SH2 binding enrichment:
1. QTEAQYRFIYM [PTPN11_Y511]  0.563
2. VDTFWYKFLKP [EPM2A_Y86_R91P]  0.601
3. RDEHGYISRCF [HSPB1_Y133_Q128R]  0.717
4. GRQVIYTENER [GPR143_Y231_G229V]  0.729
5. STSKTYVISRT [RBBP6_Y87]  0.74
6. TINPIYEHVGY [CHN1_Y143]  0.762
7. SARSAYQEAMD [SFN_Y151]  0.766
8. YEPDAYDDLDQ [ELP5_Y302]  0.767
9. IIEDPYFGNDF [ACP1_Y132_S137F_YF]  0.769
10. DLAGRYYALRS [CKB_Y173_K177R]  0.775
11. QRAADYFSQQM [GBP6_Y333_YF]  0.789
12. ARGTRYRYVSQ [UCN3_Y95]  0.789
13. RPDSPYSRLHD [DOK2_Y271_P274L]  0.796
14. FDEFRYRSVIK [CFTR_Y517_YF]  0.812
15. SVVVSYEPPEV [TP53_Y220_P219S]  0.82
16. VDGSLYETHPQ [HK1_Y417_K418E]  0.828
17. LEVPLYKNGVK [CPS1_Y1069_A1065E]  0.845
18. MAFDRYAAICS [OR8H2_Y123_H120Y_YF]  0.853
19. KFMVGYEMLAK [GALT_Y339_Q344K]  0.867
20. STGRSYAGVAV [KLHL3_Y577]  0.878
21. FEEDSYVTRSQ [RET_Y905_K907T_YF]  0.878
22. VITTLYIGFLG [KCNQ1_Y267_L262V]  0.888
23. AKAEIYEMRPL [COX10_Y97]  0.895
24. VYSTDCYRVGG [NTRK2_Y706_Y706C]  0.903
25. KNNDGNIDFAE [MCFD2_Y135_Y135N_YF]  0.912
26. EKMWTYMPSAE [GRIA4_Y695_R697P]  0.92
27. EKNANYKEGTF [CLRN1_Y171_I168N_YF]  0.944
28. TTKGSYSLYVR [HCK_Y180_S183Y]  0.998
29. QQLQGYVPSNF [FRK_Y99_I100V_YF]  1.03
30. FYLGAYDRFLP [SLC22A5_Y486_V481F]  1.18
31. RLLVVYSWTQR [HBB_Y36_P37S]  1.57
32. PGIRMYQVQFN [LRFN1_Y454_YF]  1.61
33. KACKHYLTKRT [ZBTB5_Y118_T121K]  1.94

The sequences below were run on AncSZ (assay: phosphorylation enrichment, bacterial display (enrichment ratio); higher = better substrate or ligand; peptides without Tyr show the background).

In order of falling phosphorylation enrichment:
1. QTEAQYRFIYM [PTPN11_Y511]  1.77
2. RDEHGYISRCF [HSPB1_Y133_Q128R]  1.49
3. RLLVVYSWTQR [HBB_Y36_P37S]  1.47
4. FYLGAYDRFLP [SLC22A5_Y486_V481F]  1.37
5. IIEDPYFGNDF [ACP1_Y132_S137F_YF]  1.36
6. LEVPLYKNGVK [CPS1_Y1069_A1065E]  1.28
7. YEPDAYDDLDQ [ELP5_Y302]  1.26
8. VDGSLYETHPQ [HK1_Y417_K418E]  1.26
9. SVVVSYEPPEV [TP53_Y220_P219S]  1.23
10. VITTLYIGFLG [KCNQ1_Y267_L262V]  1.18
11. FEEDSYVTRSQ [RET_Y905_K907T_YF]  1.18
12. MAFDRYAAICS [OR8H2_Y123_H120Y_YF]  1.15
13. TINPIYEHVGY [CHN1_Y143]  1.15
14. AKAEIYEMRPL [COX10_Y97]  1.08
15. VYSTDCYRVGG [NTRK2_Y706_Y706C]  1.07
16. KNNDGNIDFAE [MCFD2_Y135_Y135N_YF]  1.07
17. TTKGSYSLYVR [HCK_Y180_S183Y]  1.02
18. QRAADYFSQQM [GBP6_Y333_YF]  1
19. VDTFWYKFLKP [EPM2A_Y86_R91P]  0.982
20. RPDSPYSRLHD [DOK2_Y271_P274L]  0.916
21. KFMVGYEMLAK [GALT_Y339_Q344K]  0.914
22. SARSAYQEAMD [SFN_Y151]  0.81
23. FDEFRYRSVIK [CFTR_Y517_YF]  0.768
24. EKMWTYMPSAE [GRIA4_Y695_R697P]  0.768
25. DLAGRYYALRS [CKB_Y173_K177R]  0.729
26. EKNANYKEGTF [CLRN1_Y171_I168N_YF]  0.715
27. QQLQGYVPSNF [FRK_Y99_I100V_YF]  0.699
28. KACKHYLTKRT [ZBTB5_Y118_T121K]  0.667
29. STSKTYVISRT [RBBP6_Y87]  0.628
30. PGIRMYQVQFN [LRFN1_Y454_YF]  0.619
31. ARGTRYRYVSQ [UCN3_Y95]  0.534
32. GRQVIYTENER [GPR143_Y231_G229V]  0.531
33. STGRSYAGVAV [KLHL3_Y577]  0.43
